Experimental data reported in PMC11870197.

Legend:
Assay in all cases: EMSA
6xHis-PhoP = target: T1, 6xHis-PhoP (Lacticaseibacillus paracasei BL23, UniProt Q03AN9 1-235)
T1 sequence: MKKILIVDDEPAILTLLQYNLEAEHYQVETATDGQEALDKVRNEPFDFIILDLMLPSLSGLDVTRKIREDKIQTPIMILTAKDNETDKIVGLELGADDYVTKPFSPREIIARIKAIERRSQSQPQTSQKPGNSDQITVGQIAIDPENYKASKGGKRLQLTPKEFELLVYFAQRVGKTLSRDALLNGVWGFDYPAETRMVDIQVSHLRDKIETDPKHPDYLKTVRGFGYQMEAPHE

6xHis-PhoP~P [1] = target: T2, 6xHis-PhoP~P (Lacticaseibacillus paracasei BL23, UniProt Q03AN9 1-235)
T2 sequence: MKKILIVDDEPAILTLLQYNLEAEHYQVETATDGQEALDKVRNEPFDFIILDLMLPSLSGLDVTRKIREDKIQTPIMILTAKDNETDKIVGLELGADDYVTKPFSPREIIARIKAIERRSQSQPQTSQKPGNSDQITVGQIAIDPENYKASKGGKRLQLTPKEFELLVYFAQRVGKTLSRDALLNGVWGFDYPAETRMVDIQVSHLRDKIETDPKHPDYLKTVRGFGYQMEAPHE

6xHis-PhoP~P [2] = target: T2, 6xHis-PhoP~P; remark: listed apart in the source

Row | Binder | binding result (6xHis-PhoP) | binding result (6xHis-PhoP~P [1]) | binding signal (6xHis-PhoP~P [2])
1 | poxL promoter fragment (dsDNA) DNA 1: TTGATCCATGATCCTGATCATCATTAAGTTAATTTGTGAAAAAGGTTTACCAAGCATGTTATGGCGTGGTGATGCTGTATTAGTTCACTTGTTTGACTGTTATGGTGTCGTCG DNA 2: CGACGACACCATAACAGTCAAACAAGTGAACTAATACAGCATCACCACGCCATAACATGCTTGGTAAACCTTTTTCACAAATTAACTTAATGATGATCAGGATCATGGATCAA | no binding | no binding | 
2 | glnA promoter fragment (dsDNA) DNA 1: TGCCAAATTAGTGACGCTATTTGCAAATTCCCCCGCGACAATTTTTAGACAATCTTTCCTTTTATTTAAAATCATGTAACATTAGGGCCGAACGATACATATGTAACGGTGTTTTTTAACC DNA 2: GGTTAAAAAACACCGTTACATATGTATCGTTCGGCCCTAATGTTACATGATTTTAAATAAAAGGAAAGATTGTCTAAAAATTGTCGCGGGGGAATTTGCAAATAGCGTCACTAATTTGGCA |  |  | ~10 fold more PhoP required than for pstS or phnD
3 | ackA promoter fragment (dsDNA) DNA 1: GATTCGCCGAAAACCAAGAAAAAGTCATGATGCTGTGCGATTACGTGTGCGGCAATCCGACTACCCGTTTAGAGGAGGAAAAAAACAATGGCAAAAATTCTCGCAGTCAACGCAGGCAGTTC DNA 2: GAACTGCCTGCGTTGACTGCGAGAATTTTTGCCATTGTTTTTTTCCTCCTCTAAACGGGTAGTCGGATTGCCGCACACGTAATCGCACAGCATCATGACTTTTTCTTGGTTTTCGGCGAATC | no binding | no binding | 
